According to patent US20050277167A1 (published 2005):

Molecular target: T1, chicken prolyl 3-hydroxylase 1 (chicken P3H1) (chicken, UniProt Q6JHU8 15-725)
T1 construct: Native protein from chick embryos (gelatin sepharose, then 1C10 antibody column); also called chick homologue of leprecan; 90 kDa protein
T1 sequence: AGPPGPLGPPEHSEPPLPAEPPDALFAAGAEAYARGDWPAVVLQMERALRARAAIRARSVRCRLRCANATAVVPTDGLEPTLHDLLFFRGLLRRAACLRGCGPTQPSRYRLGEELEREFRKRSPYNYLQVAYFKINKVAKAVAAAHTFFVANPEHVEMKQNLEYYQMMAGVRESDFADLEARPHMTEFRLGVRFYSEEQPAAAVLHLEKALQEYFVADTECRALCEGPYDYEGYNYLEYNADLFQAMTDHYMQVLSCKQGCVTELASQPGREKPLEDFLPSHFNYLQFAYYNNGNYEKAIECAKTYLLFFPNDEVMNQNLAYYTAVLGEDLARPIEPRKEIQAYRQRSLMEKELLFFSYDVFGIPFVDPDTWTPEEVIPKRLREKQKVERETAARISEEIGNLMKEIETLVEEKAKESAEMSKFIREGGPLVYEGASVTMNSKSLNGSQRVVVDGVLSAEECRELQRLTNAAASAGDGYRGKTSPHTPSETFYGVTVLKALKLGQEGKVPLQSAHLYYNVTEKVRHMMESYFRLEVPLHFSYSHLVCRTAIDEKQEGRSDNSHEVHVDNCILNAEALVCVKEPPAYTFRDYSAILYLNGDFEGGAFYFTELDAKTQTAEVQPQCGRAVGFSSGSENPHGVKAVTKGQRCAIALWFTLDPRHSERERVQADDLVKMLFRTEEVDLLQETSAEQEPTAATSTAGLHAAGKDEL
Test: co-retention on 1C10 (anti-P3H1) column, elution at pH 6 and 0.5 M NaCl, SDS-PAGE and sequencing
Protocol: The antibody was produced and selected by standard methods and specificity of the antibody was determined using immunoblotting and ELISA techniques. The antibody recognizes both nonreduced and reduced (at much lower affinity) P3H1 and was used to create an affinity column for the purpose of protein purification. Briefly, a 2 ml column was created using approximately 10 mg of the 1C10 antibody and AminoLink® plus coupling gel (Pierce) following the manufacturer's instructions. Pooled and dialyzed peak fractions from the gelatin sepharose elution were then loaded onto the antibody column and the flow through was collected and concentrated for further purification of prolyl 4-hydroxylase and PDI by sieve chromatography on superose 12 resin (Pharmacia). The 1C10 antibody column was washed with 5 volumes of PBS (procedure described in Current Protocols in Protein Science Online), and then washed with 5 volumes of wash B buffer containing 50 mM sodium phosphate, pH 6.0, 0.5 M NaCl, and 0.1% Triton X-100 to elute associated proteins. […] Sequences of proteins eluted with the wash B buffer were determined by Edman degradation in a protein sequencer (Applied Biosystems Procise Sequencer). […]

binding result: binds
B1: cyclophilin B (CYPB) (enzyme)
chain: not shown
notes: Native protein from chick embryos, 21 kDa on SDS-PAGE; also called 21 kDa protein
